Measurements from publication doi:10.1101/2025.08.01.668158.
Substitutions are numbered along the chain they refer to.

T1: SpDis3L2(D461N)ΔN168 (Schizosaccharomyces pombe, UniProt O14040 168-927, D461N)
T1 sequence: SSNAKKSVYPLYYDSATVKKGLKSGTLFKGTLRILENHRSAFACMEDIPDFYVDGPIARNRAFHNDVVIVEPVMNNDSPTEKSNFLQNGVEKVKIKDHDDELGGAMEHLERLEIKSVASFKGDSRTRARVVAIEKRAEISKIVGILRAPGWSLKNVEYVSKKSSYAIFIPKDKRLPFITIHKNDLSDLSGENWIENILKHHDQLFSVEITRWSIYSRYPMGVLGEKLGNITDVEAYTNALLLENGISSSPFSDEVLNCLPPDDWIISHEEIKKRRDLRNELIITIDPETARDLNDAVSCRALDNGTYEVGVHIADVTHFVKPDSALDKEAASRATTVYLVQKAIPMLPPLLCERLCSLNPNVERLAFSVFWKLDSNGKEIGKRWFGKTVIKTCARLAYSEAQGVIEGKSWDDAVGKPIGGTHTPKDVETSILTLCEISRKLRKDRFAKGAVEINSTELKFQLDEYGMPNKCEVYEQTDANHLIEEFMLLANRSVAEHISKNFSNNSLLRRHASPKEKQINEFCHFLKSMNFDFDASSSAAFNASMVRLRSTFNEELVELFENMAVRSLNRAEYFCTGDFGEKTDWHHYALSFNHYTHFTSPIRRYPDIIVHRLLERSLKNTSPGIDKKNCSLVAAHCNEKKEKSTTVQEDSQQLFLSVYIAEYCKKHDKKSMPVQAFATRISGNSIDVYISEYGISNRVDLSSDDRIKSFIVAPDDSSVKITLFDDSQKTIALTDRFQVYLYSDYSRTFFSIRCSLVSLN

T2: SpDis3L2 A756R (Schizosaccharomyces pombe, UniProt O14040 1-927, A756R)
T2 sequence: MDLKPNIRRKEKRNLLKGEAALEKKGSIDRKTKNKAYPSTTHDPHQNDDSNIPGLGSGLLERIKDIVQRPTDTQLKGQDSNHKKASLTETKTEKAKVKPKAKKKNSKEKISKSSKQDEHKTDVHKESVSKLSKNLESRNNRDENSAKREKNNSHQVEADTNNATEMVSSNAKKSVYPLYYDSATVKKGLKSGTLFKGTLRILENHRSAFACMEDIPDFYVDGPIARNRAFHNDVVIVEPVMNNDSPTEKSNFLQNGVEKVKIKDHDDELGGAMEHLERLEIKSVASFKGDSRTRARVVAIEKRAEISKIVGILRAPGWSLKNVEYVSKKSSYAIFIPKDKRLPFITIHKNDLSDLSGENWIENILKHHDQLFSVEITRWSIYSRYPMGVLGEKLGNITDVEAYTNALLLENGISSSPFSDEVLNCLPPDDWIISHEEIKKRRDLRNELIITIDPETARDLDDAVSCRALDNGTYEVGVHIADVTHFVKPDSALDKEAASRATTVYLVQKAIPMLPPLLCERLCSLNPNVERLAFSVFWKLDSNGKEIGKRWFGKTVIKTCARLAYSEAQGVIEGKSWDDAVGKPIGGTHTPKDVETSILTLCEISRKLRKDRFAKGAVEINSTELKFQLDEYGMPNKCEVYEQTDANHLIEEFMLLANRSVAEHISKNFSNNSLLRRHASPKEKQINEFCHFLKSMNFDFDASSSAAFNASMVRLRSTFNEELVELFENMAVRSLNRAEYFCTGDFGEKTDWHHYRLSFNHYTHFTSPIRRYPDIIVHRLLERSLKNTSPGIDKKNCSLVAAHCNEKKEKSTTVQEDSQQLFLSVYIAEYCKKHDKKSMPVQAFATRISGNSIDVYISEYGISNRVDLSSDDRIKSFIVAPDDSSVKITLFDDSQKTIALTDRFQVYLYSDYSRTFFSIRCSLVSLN

T3: SpDis3L2 WT (Schizosaccharomyces pombe, UniProt O14040 1-927)
T3 sequence: T2 sequence with R756A

B1: U13 (ssRNA)
RNA: UUUUUUUUUUUUU
B2: Adh1-U16 (ssRNA)
RNA: GUUUUGUAUAGAAAUCAAUGUUUUUUUUUUUUUUUU

How the values were obtained:
SpDis3L2(D461N)ΔN168 = biological target: T1, SpDis3L2(D461N)ΔN168; experiment: X-ray crystallography
SpDis3L2 A756R = biological target: T2, SpDis3L2 A756R; experiment: EMSA
SpDis3L2 WT = biological target: T3, SpDis3L2 WT; experiment: EMSA

Binder | binding result (SpDis3L2(D461N)ΔN168) | binding result (SpDis3L2 A756R) | binding result (SpDis3L2 WT)
B1 | binds | – | –
B2 | – | binds | binds
